Target: T1, β2m of the single-chain construct (Homo sapiens (Human)., UniProt P61769)
T1 construct: β2-microglobulin; In the cryo-EM sample it is the middle part of m3; also called B2m; source: part of the single-chain construct m3
Assay: cryo-EM structure; single-chain P2R-linker-β2m-linker-B∗73:01 copurified with Fabs B.1 and B.8; Hepes-buffered saline pH 7.2, about 0.07 mM fluorinated octyl maltoside; 3.1 Å
Details: both partners purified

binding result: binds
B1: Fab B.1 (Fab, V domains shown)
VH: EVQLVESGGGLVQPGGSLRLSCAASGFNVSYYSIHWVRQAPGKGLEWVASISPYSGSTSYADSVKGRFTISADTSKNTAYLQMNSLRAEDTAVYYCARYSYGNSWSYDPYYGAMDYWGQGTLVTVSS
VL: DIQMTQSPSSLSASVGDRVTITCRASQSVSSAVAWYQQKPGKAPKLLIYSASSLYSGVPSRFSGSRSGTDFTLTISSLQPEDFATYYCQQYYWAPITFGQGTKVEIK
notes: synthetic Fab; model deposited in PDB 8TNJ (constant domain portion not visible in the map)

Reference: publication PMC12450638 (The Journal of Biological Chemistry, 2025)
